Data taken from patent US20140017734.

T1: Monoscaffoldin (truncated CipA), Cohesin 2-CBM3a, Q06851
T1 chain: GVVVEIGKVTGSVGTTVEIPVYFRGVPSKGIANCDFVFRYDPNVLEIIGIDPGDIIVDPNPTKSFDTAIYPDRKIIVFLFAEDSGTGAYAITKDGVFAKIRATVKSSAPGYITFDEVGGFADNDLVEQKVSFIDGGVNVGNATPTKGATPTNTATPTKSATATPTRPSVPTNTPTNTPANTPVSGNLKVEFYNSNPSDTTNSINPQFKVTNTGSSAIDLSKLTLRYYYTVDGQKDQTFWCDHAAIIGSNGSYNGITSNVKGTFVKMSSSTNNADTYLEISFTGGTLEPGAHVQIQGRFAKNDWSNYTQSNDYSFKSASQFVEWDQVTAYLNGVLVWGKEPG

B1: wild-type CbhA from Clostridium thermocellum (CBM4-Ig-GH9-linker3-CBM3b-Doc) (protein)
chain: MKFRRSICTAVLLAVLLTLLVPTSVFALEDNSSTLPPYKNDLLYERTFDEGLCYPWHTCEDSGGKCSFDVVDVPGQPGNKAFAVTVLDKGQNRWSVQMRHRGLTLEQGHTYRVRLKIWADASCKVYIKIGQMGEPYAEYWNNKWSPYTLTAGKVLEIDETFVMDKPTDDTCEFTFHLGGELAATPPYTVYLDDVSLYDPEYTKPVEYILPQPDVRVNQVGYLPEGKKVATVVCNSTQPVKWQLKNAAGVVVLEGYTEPKGLDKDSQDYVHWLDFSDFATEGIGYYFELPTVNSPTNYSHPFDIRKDIYTQMKYDALAFFYHKRSGIPIEMPYAGGEQWTRPAGHIGIEPNKGDTNVPTWPQDDEYAGIPQKNYTKDVTGGWYDAGDHGKYVVNGGIAVWTLMNMYERAKIRGLDNWGPYRDGGMNIPEQNNGYPDILDEARWEIEFFKKMQVTEKEDPSIAGMVHHKIHDFRWTALGMLPHEDPQPRYLRPVSTAATLNFAATLAQSARLWKDYDPTFAADCLEKAEIAWQAALKHPDIYAEYTPGSGGPGGGPYNDDYVGDEFYWAACELYVTTGKDEYKNYLMNSPHYLEMPAKMGENGGANGEDNGLWGCFTWGTTQGLGTITLALVENGLPATDIQKARNNIAKAADRWLENIEEQGYRLPIKQAEDERGGYPWGSNSFILNQMIVMGYAYDFTGDSKYLDGMFDGISYLLGRNAMDQSYVTGYGERPLQNPHDRFWTPQTSKRFPAPPPGIISGGPNSRFEDPTINAAVKKDTPPQKCFIDHTDSWSTNEITVNWNAPFAWVTAYLDEQYTDSETDKVTIDSPVAGERFEAGKDINISATVKSKTPVSKVEFYNGDTLISSDTTAPYTAKITGAAVGAYNLKAVAVLSDGRRIESPVTPVLVKVIVKPTVKLTAPKSNVVAYGNEFLKITATASDSDGKISRVDFLVDGEVIGSDREAPYEYEWKAVEGNHEISVIAYDDDDAASTPDSVKIFVKQARDVKVQYLCENTQTSTQEIKGKFNIVNTGNRDYSLKDIVLRYYFTKEHNSQLQFICYYTPIGSGNLIPSFGGSGDEHYLQLEFKDVKLPAGGQTGEIQFVIRYADNSFHDQSNDYSFDPTIKAFQDYGKVTLYKNGELVWGTPPGGTEPEEPEEPAIVYGDCNDDGKVNSTDVAVMKRYLKKENVNINLDNADVNADGKVNSTDFSILKRYVMKNIEELPYR
B2: Chimera2 of CbhA (CBM4-Ig-GH9-linker2-CBM3b-Doc) (protein)
chain: LEDNSSTLPPYKNDLLYERTFDEGLCYPWHTCEDSGGKCSFDVVDVPGQPGNKAFAVTVLDKGQNRWSVQMRHRGLTLEQGHTYRVRLKIWADASCKVYIKIGQMGEPYAEYWNNKWSPYTLTAGKVLEIDETFVMDKPTDDTCEFTFHLGGELAATPPYTVYLDDVSLYDPEYTKPVEYILPQPDVRVNQVGYLPEGKKVATVVCNSTQPVKWQLKNAAGVVVLEGYTEPKGLDKDSQDYVHWLDFSDFATEGIGYYFELPTVNSPTNYSHPFDIRKDIYTQMKYDALAFFYHKRSGIPIEMPYAGGEQWTRPAGHIGIEPNKGDTNVPTWPQDDEYAGIPQKNYTKDVTGGWYDAGDHGKYVVNGGIAVWTLMNMYERAKIRGLDNWGPYRDGGMNIPEQNNGYPDILDEARWEIEFFKKMQVTEKEDPSIAGMVHHKIHDFRWTALGMLPHEDPQPRYLRPVSTAATLNFAATLAQSARLWKDYDPTFAADCLEKAEIAWQAALKHPDIYAEYTPGSGGPGGGPYNDDYVGDEFYWAACELYVTTGKDEYKNYLMNSPHYLEMPAKMGENGGANGEDNGLWGCFTWGTTQGLGTITLALVENGLPATDIQKARNNIAKAADRWLENIEEQGYRLPIKQAEDERGGYPWGSNSFILNQMIVMGYAYDFTGDSKYLDGMFDGISYLLGRNAMDQSYVTGYGERPLQNPHDRFWTPQTSKRFPAPPPGIISGGPNSRFEDPTINAAVKKDTPPQKCFIDHTDSWSTNEITVNWNAPFAWVTAYLDEQYTDSETDTPTPTATPAPTVTPTPTPAPTPTPTPTPTATPTPTPTPTPTATPTVTATPTPTPSSTPVKVQYLCENTQTSTQEIKGKFNIVNTGNRDYSLKDIVLRYYFTKEHNSQLQFICYYTPIGSGNLIPSFGGSGDEHYLQLEFKDVKLPAGGQTGEIQFVIRYADNSFHDQSNDYSFDPTIKAFQDYGKVTLYKNGELVWGTPPGGTEPEEPEEPAIVYGDCNDDGKVNSTDVAVMKRYLKKENVNINLDNADVNADGKVNSTDFSILKRYVMKNIEELPYR

How the values were obtained:
[1] = target: Monoscaffoldin (truncated CipA), Cohesin 2-CBM3a (UniProt Q06851)
[2] = target: T1, Monoscaffoldin (truncated CipA), …

Molecule | yield of soluble sugar from Avicel after 119 hour digestion, with the adaptor relative to without it [1] | yield of soluble sugar from Avicel after 119 hour digestion, with the adaptor relative to without it [2]
Chimera1 of CbhA (CBM4-Ig-GH9-linker1-CBM3b-Doc) | increased by factors of 1.55 and 1.73 | 
B1 |  | increased by a factor of only 1.09
B2 |  | increased by factors of 1.55 and 1.73
